Laboratory results as given in article PMC5302886, “Structure and function of the mycobacterial transcription initiation complex with the essential regulator RbpA” (eLife, 2017).

Target: T1, M. smegmatis RNA polymerase β’ subunit (M. smegmatis, UniProt A0QS66 1-1317)
T1 construct: RNA polymerase β’ subunit of Mycobacterium smegmatis mc2155, native chromosomal copy of rpoC with a C-terminal PreScission site and His10 tag; In the crystal β’ stood as part of the whole σ^A-holoenzyme, not as an isolated subunit; also called RNAP β’-ppx-His10; rpoC product
Experiment: crystal structure; Msm RbpA/σ^A-holo mixed 1:1 with T10 upstream fork promoter DNA (RbpA/TIC, 446 kDa); hanging drop vapor diffusion at 22°C, 0.1 M Bis-Tris pH 6.0, 0.2 M LiSO4, 16% PEG 3350, 2.5% ethylene glycol; 2.76 Å
Settings: both partners purified

| Binder | binding result |
| --- | --- |
| M. smegmatis σ^A (natural protein, primary (group 1) sigma factor σ^A of Mycobacterium smegmatis; domains σ^A2, σ^A3, σ^A4 named in the text; Plasmid Msm pET-SUMO σ^A received from C; Stallings; also called Msm σ^A; SigA) MAATKASPATEEPVKRTATKTPAKKAPAKRAAKSAAAKAGGKAPAKKAPAKRAAKGTAAKPEDGVTDDLEVTDDLEAEPGEDLDVEDTDLELDDLDSDDDTAVEDEEEEADAATPAVATAKAADDDIDEPSEKDKASGDFVWDEEESEALRQARKDAELTASADSVRAYLKQIGKVALLNAEEEVELAKRIEAGLYATQKLAELAEKGEKLPVQQRRDMQWICRDGDRAKNHLLEANLRLVVSLAKRYTGRGMAFLDLIQEGNLGLIRAVEKFDYTKGYKFSTYATWWIRQAITRAMADQARTIRIPVHMVEVINKLGRIQRELLQDLGREPTPEELAKEMDITPEKVLEIQQYAREPISLDQTIGDEGDSQLGDFIEDSEAVVAVDAVSFTLLQDQLQSVLETLSEREAGVVRLRFGLTDGQPRTLDEIGQVYGVTRERIRQIESKTMSKLRHPSRSQVLRDYLD | binds |
| M. smegmatis RbpA (natural protein, RbpA of Mycobacterium smegmatis mc2155 (MSmeg_3858), cloned from genomic DNA into pet21C; elements NTT (25 residues, disordered in the crystal), CD, BL (residues 70-79), SID; 114 residues by the printed truncations (28-114aa, 72-114aa); the complex was held on the Ni2+ column by the His10-SUMO tag of σ^A and came in the flow-through after that tag was cleaved; The NTT was in the crystallised …) MADRVLRGSRLGAVSYETDRNHDLAPRQVARYRTDNGEEFDVPFADDAEIPGTWLCRNGLEGTLIEGDVPEPKKVKPPRTHWDMLLERRSVEELEELLKERLDLIKAKRRGTGS | binds |
